This is an account of results in US20240218374.

In data set [1] the target is Spike S1 (SARS-CoV-2) (UniProt P0DTC2). Briefly: filter. As to conditions: Y=Tyr-dU, p=Nap-dC; printed CCTTGGGAYApYAYGpGYppGAppGpYpGGApGGAGAAGG [Tyr-dU: 9,12,14,18,27; Nap-dC: 11,16,19,20,23,24,26,28,32].
Data set [2] concerns the target Spike RBD-mFc (ACE2 inhibition assay) (SARS-CoV-2) (UniProt P0DTC2). Briefly: inhibition. As to conditions: Y=Tyr-dU, p=Nap-dC; printed CCTTGGGAYApYAYGpGYppGAppGpYpGGApGGAGAAGG [Tyr-dU: 9,12,14,18,27; Nap-dC: 11,16,19,20,23,24,26,28,32].
Data set [3] has as its target authentic SARS-CoV-2 virus (VIC01, Clade B) spike (SARS-CoV-2) (UniProt P0DTC2). Briefly: cell_activity. The settings on record: Y=Tyr-dU, p=Nap-dC; printed GGGAYApYAYGpGYppGAppGpYpGGApG [Tyr-dU: 5,8,10,14,23; Nap-dC: 7,12,15,16,19,20,22,24,28].

As usually defined, the Kd is the equilibrium constant for the complex coming apart. Usually EC50 stands for the concentration needed to bring the measured effect to its halfway point. High values mean lower potency in that assay, low ones higher potency in that assay. A word on the IC50: it is the concentration at which inhibition is half-maximal. A low value points to inhibition by little substance.

In turn, “CCTTGGGATACTATGCGTCCGACCGCTCGGACGGAGAAGG [26874-29_4 (SL1111)]” returned a dissociation constant Kd in data set [1] of 3.2 nM. The sequence also showed an EC50 in data set [2] of 4.2 nM.
In turn, “GGGATACTATGCGTCCGACCGCTCGGACG [26874-29_20 (SL1111_20)]” had a concentration for half-maximal inhibition (IC50) in data set [3] of 1.1 nM.
